In patent US10272135B2, “Apolipoprotein O and fragments thereof for inducing apoptosis in a cancerous cell” (INSERM (INSTITUT NATIONAL DE LA SANTÉ ET DE LA RECHERCHE …, priority 2014, dated 2019):

Test system: cyclophilin-D and/or ANT
Assay: Blue Native Page and GST pull-down with heart mitochondria protein extracts
Format: binding, mouse
Details: BN-PAGE and GST-ApoO pull-down (FIGS. 5A and B)
Text: (A) One-dimensional BN-PAGE gel analysis of mitochondrial protein complexes from mouse heart. (1): Coomassie blue staining of the 4-13% polyacrylamide one-dimensional gradient blue native gel. (2): Ponceau S staining of the transferred PVDF membrane. ApoO, ANT and CypD were detected using enhanced chemiluminescence of the transferred PVDF membranes with ApoO, ANT or CypD antibodies respectively. ApoO, ANT and CypD were detected in the same complex (black rectangle).
(B) Western blot analysis of ApoO-GST pull-down. Upper panel: Ponceau S staining of the transferred membrane used to control loading and transfer. […]
After ethical committee approval, all patients in this study gave written consent for sample collection and molecular analysis prior to inclusion. […] All ApoO sequences within the expression vectors were verified by DNA double strand sequencing using ABI PRISM®BigDye™ Terminator version 3.1 Ready reaction cycle sequencing kit (Life Technologies SAS, Villebon sur Yvette) and loaded on an ABI 3130XL DNA sequencing instrument (Life Technologies SAS, Villebon sur Yvette). […]

B1: ApoO: 198-amino acid apolipoprotein, SEQ ID NO: 1; tested by overexpression from expression vectors or transgene (protein, listed as Homo sapiens)
chain: MFKVIQRSVGPASLSLLTFKVYAAPKKDSPPKNSVKVDELSLYSVPEGQSKYVEEARSQLEESISQLRHYCEPYTTWCQETYSQTKPKMQSLVQWGLDSYDYLQNAPPGFFPRLGVIGFAGLIGLLLARGSKIKKLVYPPGFMGLAASLYYPQQAIVFAQVSGERLYDWGLRGYIVIEDLWKENFQKPGNVKNSPGTK
  interaction with cyclophilin-D and/or ANT: interaction
